Laboratory results taken from patent US9168297B2, “Regulation of skin pigmentation by neuregulin-1 (NRG-1)” (The United States of America, as Represented by the …, priority 2010, dated 2015).

Tests used:
[1] = system: ERBB2 mRNA; experiment: ERBB2 mRNA level by RT-PCR in melanocytes; assay type: cell-based, human; settings: HEM-LP and HEM-DP, NRG-1 50 ng/ml, 1 day, vs controls
Method: FIGS. 8A and 8B are digital images illustrating the mechanism of ERBB2 abrogation after NRG-1 treatment. FIG. 8A) ERBB2 mRNA levels in HEM-LP and in HEM-DP melanocytes were detected by RT-PCR after treatment with or without NRG-1 (50 ng/ml) for 1 day. FIG. 8B) MG132 (120 nM) was added to the melanocyte culture medium to inhibit proteasomal degradation during treatment of HEM-LP and HEM-DP melanocytes with or without NRG-1 (50 ng/ml). Proteins were extracted for each sample, and ERBB2 levels were detected by western blotting. Results are representative of three studies.
Total RNAs were isolated from cells using an RNeasy mini kit (Qiagen, Valencia, Calif.), and 500 ng RNA of each sample was used for reverse transcription. […]
Whether the decrease in ERBB2 level elicited by NRG-1 was due to transcriptional regulation or to proteasomal degradation was further explored. When ERBB2 mRNA levels were measured after 1 day of treatment with NRG-1, NRG-1 treated cells and controls were similar both for HEM-LP and for HEM-DP melanocytes (FIG. 8A) despite the marked decrease in ERBB2 protein expression noted above.

[2] = system: HEM-LP melanocytes; experiment: Proliferation of cultured melanocytes, total cell numbers counted; assay type: cell-based, human; settings: NRG-1 50 ng/ml, as early as day 1 until confluent, vs control
Method: (§1) FIGS. 5A-5D illustrate the effect of NRG-1 on the proliferation of human melanocytes in culture. FIG. 5A) Lightly-pigmented (HEM-LP) and FIG. 5B) darkly-pigmented (HEM-DP) melanocytes were treated with or without NRG-1 (50 ng/ml) for 1, 3, 5 or 9 days in 10 cm culture dishes and total cell numbers were counted. Results are the averages of three studies±SD. FIG. 5C) Phosphorylated-Akt levels were detected by western blotting for HEM-LP and HEM-DP melanocytes treated with NRG-1 (50 ng/ml) for 5 days compared to vehicle treated controls; GAPDH is used as a loading control. FIG. 5D) HEM-DP melanocytes were treated with NRG-1 (50 ng/ml) for 1, 3 or 5 days and p-Akt levels were detected by western blotting compared to vehicle treated controls; GAPDH is used as a loading control. Results shown are representative of three studies; statistically significant differences are indicated.
(§2) Human neonatal epidermal melanocytes, lightly and darkly pigmented (HEM-LP and HEM-DP, respectively) were obtained from Cascade Biologics (Portland, Oreg.) and were cultured in melanocyte growth medium (MGM) consisting of Medium 254 and human melanocyte growth supplement (both from Cascade Biologics) at 37° C. under 5% CO2. Melanocytes from the third to ninth passage were used in these studies. […]

[3] = system: HEM-DP melanocytes; experiment: as above; assay type: cell-based, human; settings: NRG-1 50 ng/ml, as early as day 1 until confluent, vs control
Method: as §1, §2

[4] = system: MelanoDerm 3-D reconstructed human skin; experiment: Pigmentation of 3-D reconstructed skin (MelanoDerm), L value and microscopy; assay type: cell-based; settings: for ΔL (pigmentation, L value): day 9, vs vehicle
Method: Light, Medium, and Dark human epidermal equivalents (MelanoDerm®) were purchased from MatTek Corp. (Ashland, Mass.). MelanoDerms were grown at the air/liquid interface of the maintenance medium MEL-LLMM (MatTek Corp.), and the culture medium was renewed every 2 days. Where noted, MelanoDerms were treated for 9 days with 50 ng/ml NRG-1 (rhNRG-1-β1, R&D Systems, Minneapolis, Minn.) prepared in phosphate-buffered saline (PBS) with 0.1% bovine serum albumin (BSA) and MelanoDerm maintenance medium. The same concentrations of PBS and BSA were used for mock-treated controls.
For the studies where the MelanoDerms were treated with NRG-1 and/or various pan-ERBB inhibitors, Dark MelanoDerms were first incubated with a pan-ERBB inhibitor (0.5 μM Compound 39, EMD Chemicals, Gibbistown, N.J. or 2 μM CI-1033, Selleck Chemicals LLC, US) for 30 minutes or with vehicle (DMSO) only before treatment with 50 ng/ml NRG-1; identical amounts of DMSO (0.02%) were added to all samples. Treatment was renewed every 2 days in fresh medium and was continued for 9 days.
Three dimensional (3-D) reconstructed human skin models (termed MelanoDerms) were used to test the effects of NRG-1 on skin pigmentation. Three types of MelanoDerm, ‘light’ ([…]), ‘medium’ ([…]) and ‘dark’ ([…]), were used to compare the effects of NRG-1 on those three types of skin. In preliminary studies to optimize the concentration of NRG-1 (from 10 to 200 ng/ml were tested, FIG. 10), 50 ng/ml was chosen which was consistent with concentrations of NRG-1 used for other cell types by other groups. NRG-1 was added to the MelanoDerm media at 50 ng/ml and the medium was replenished every 2 days. On day 9, the MelanoDerms treated with NRG-1 were compared to controls treated only with vehicle. Pigmentation of the skin was assessed using the L value, higher L values indicating lighter colors. […] It should be noted that relatively small changes in ΔL can represent relatively large changes in visible skin color. For example, the mean L value of White/Caucasian skin is 67, that of Asians, Pacific-Islanders is 65, that of Hispanic/Latinos is 64, and that of American Indian/Alaska Native is 62. […] In the vehicle-treated control MelanoDerms, melanin pigment was more evenly distributed throughout the entire epidermis and no visible melanin accumulation was observed around melanocytes (FIG. 3B). […] Therefore, NRG-1 leads to visible increases in pigmentation in the MelanoDerms which was greater as the skin had more constitutive pigmentation.

B1: NRG-1: commercially available recombinant human neuregulin-1 (rhNRG-1-β1, R&D Systems), SEQ ID NO: 11 (protein)
chain: TSHLVKCAEKEKTFCVNGGECFMVKDLSNPSRYLCKCPNEFTGDRCQNYVMASFYKHLGIEFMEAEELYQK
ERBB2 mRNA levels [1]: similar
Cell numbers [2]: significantly higher
Cell numbers [3]: significantly higher
Melanocyte growth in MelanoDerm skin model ([4]; MelanoDerm, NRG-1): did not increase melanocyte growth
Melanocyte morphology, bright field microscopy ([4]; MelanoDerms, NRG-1 50 ng/ml, vs vehicle-treated control): more abundant cytoplasm with thicker dendrites
ΔL (pigmentation, L value) ([4]; dark MelanoDerms, NRG-1 50 ng/ml): −3
ΔL (pigmentation, L value) ([4]; light MelanoDerms, NRG-1 50 ng/ml): −1
ΔL (pigmentation, L value) ([4]; medium MelanoDerms (Asian skin), NRG-1 50 ng/ml): −2
